Legend:
[1] = target: EhDNAligI-Phe11Ala:Phe12Ala (Entamoeba histolytica)
[2] = system: EhDNAligI full-length (DNA ligase I);HsPCNA (Entamoeba histolytica;Homo sapiens); assay: fluorescence anisotropy; details: with HsPCNA, 10 mM Mg2+, 1 mM ATP, 3' dideoxy-C at the nick that halts ligation, Anisotropy: 50 mM Tris/HCl pH 7.5, 25 mM NaCl, 5 mM DTT, 10 mM MgCl2, 250 ug/mL BSA, 30 C, footprinting: 50 mM Tris/HCl pH 7.5, 6.6 mM MgCl2, 5 mM …
[3] = system: EhDNAligI full-length (DNA ligase I);EhPCNA (Entamoeba histolytica;Entamoeba histolytica); assay: fluorescence anisotropy; details: 3' dideoxy-C at the nick that halts ligation; Anisotropy: 50 mM Tris/HCl pH 7.5, 25 mM NaCl, 5 mM DTT, 10 mM MgCl2, 250 ug/mL BSA, 1 mM ATP, 30 C; footprinting: 50 mM Tris/HCl pH 7.5, 6.6 mM MgCl2, 5 mM …
[4] = system: EhDNAligI ΔPIP (Entamoeba histolytica); assay: fluorescence anisotropy; details: 3' dideoxy-C at the nick that halts ligation; Anisotropy: 50 mM Tris/HCl pH 7.5, 25 mM NaCl, 5 mM DTT, 10 mM MgCl2, 250 ug/mL BSA, 1 mM ATP, 30 C; footprinting: 50 mM Tris/HCl pH 7.5, 6.6 mM MgCl2, 5 mM …
[5] = system: EhDNAligI ΔDBD;EhPCNA (Entamoeba histolytica;Entamoeba histolytica); assay: fluorescence anisotropy; details: 3' dideoxy-C at the nick that halts ligation; Anisotropy: 50 mM Tris/HCl pH 7.5, 25 mM NaCl, 5 mM DTT, 10 mM MgCl2, 250 ug/mL BSA, 1 mM ATP, 30 C; footprinting: 50 mM Tris/HCl pH 7.5, 6.6 mM MgCl2, 5 mM …
[6] = system: EhDNAligI full-length (DNA ligase I) (Entamoeba histolytica); assay: fluorescence anisotropy; details: 3' dideoxy-C at the nick that halts ligation; Anisotropy: 50 mM Tris/HCl pH 7.5, 25 mM NaCl, 5 mM DTT, 10 mM MgCl2, 250 ug/mL BSA, 1 mM ATP, 30 C; footprinting: 50 mM Tris/HCl pH 7.5, 6.6 mM MgCl2, 5 mM …
[7] = system: EhDNAligI ΔPIP;EhPCNA (Entamoeba histolytica;Entamoeba histolytica); assay: fluorescence anisotropy; details: 3' dideoxy-C at the nick that halts ligation; Anisotropy: 50 mM Tris/HCl pH 7.5, 25 mM NaCl, 5 mM DTT, 10 mM MgCl2, 250 ug/mL BSA, 1 mM ATP, 30 C; footprinting: 50 mM Tris/HCl pH 7.5, 6.6 mM MgCl2, 5 mM …
[8] = target: EhDNAligI deletion mutant lacking its first 39 amino acids including the PIP box (Entamoeba histolytica)
[9] = target: Entamoeba histolytica DNA ligase I, full-length (Entamoeba histolytica)
[10] = target: Entamoeba histolytica DNA ligase I, full-length (Entamoeba histolytica); remark: listed apart in the source

**Q.** For EhPCNA-V127A-I129A (natural protein), which stimulation of nick-sealing activity (time course) by the EhPCNA mutant [1] is on record?
**A.** < 2.4 fold

**Q.** Which Kd [2] does the source give for “3'-FAM nicked dsDNA (anisotropy substrate)” here?
**A.** 11.3 nM

**Q.** And the Kd [3]?
**A.** 6.2 nM

**Q.** And the Kd [4]?
**A.** 82.1 nM

**Q.** What about the Kd [5] of the same substance?
**A.** 95.5 nM

**Q.** What about the Kd [6] of the same substance?
**A.** 72.1 nM

**Q.** And the Kd [7]?
**A.** 10.2 nM

**Q.** Which catalytic efficiency (k cat/K m) of steady-state ligation, with against without EhPCNA [8] does the source give for “Entamoeba histolytica proliferating cell nuclear antigen (natural protein)” here?
**A.** > 18 fold

**Q.** And the catalytic efficiency (k cat/K m) of steady-state ligation, with against without EhPCNA [9]?
**A.** > 18 fold

**Q.** And the stimulation of nick-sealing activity (time course) by wild-type EhPCNA [1]?
**A.** 9.8 fold

**Q.** What about the affinity of the ligase for 3′-FAM-labeled nicked DNA by fluorescence anisotropy, with against without EhPCNA [10] of the same substance?
**A.** 11 fold

**Q.** Which stimulation of nick-sealing activity (time course) by the EhPCNA mutant [1] does the source give for EhPCNA-Δ254 (natural protein) here?
**A.** < 2.4 fold
